Values of other authors as cited in paper PMC6006191.

Biological target: GLRX3 (Homo sapiens) (UniProt O76003)
Test: NMR

UniProt O76003, sequence (O76003 2-335): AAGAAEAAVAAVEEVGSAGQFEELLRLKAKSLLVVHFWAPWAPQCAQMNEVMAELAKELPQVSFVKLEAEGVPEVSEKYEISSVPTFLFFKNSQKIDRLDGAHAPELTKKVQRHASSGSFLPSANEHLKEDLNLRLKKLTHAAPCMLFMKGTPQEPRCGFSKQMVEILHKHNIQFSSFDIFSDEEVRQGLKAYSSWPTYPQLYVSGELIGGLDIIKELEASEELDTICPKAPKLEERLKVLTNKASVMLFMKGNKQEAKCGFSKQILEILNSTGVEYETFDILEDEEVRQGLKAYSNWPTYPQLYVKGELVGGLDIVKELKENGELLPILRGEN

Kd: 25 µM
Substance: BOLA2 (apo) (from UniProt Q9H3K6)
